According to the supplement of paper PMC5998384:

How the values were obtained:
HeLa Kyoto [1] = experiment: solubility in G1/S (NP-40 vs SDS abundance) (log2 ratio); higher = more soluble; details: cell cycle stage: G1/S
HeLa Kyoto [2] = experiment: solubility change mitosis vs G1/S (difference of NP-40 vs SDS log2 ratios) (log2 ratio difference); higher = more soluble in mitosis
HeLa Kyoto [3] = experiment: thermal stability score vs G1/S (z-score of summed log2 fold changes over temperatures); higher = more thermally stable than in G1/S
HeLa Kyoto [4] = experiment: melting temperature (median over replicates), in situ; higher = more thermally stable
[5] = cell cycle stage: early G1 (4.5 h after nocodazole release)
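For melting temperature (median over replicates), in situ in this document: HeLa Kyoto cells synchronized by double thymidine or nocodazole block, proteins quantified by TMT10plex mass spectrometry, three independent biological replicates.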
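For solubility change mitosis vs G1/S (difference of NP-40 vs SDS log2 ratios) in this document: synchronized HeLa Kyoto cells (double thymidine block for G1/S, nocodazole release for mitosis), protein amounts in NP-40 versus SDS lysates quantified by mass spectrometry, three biological replicates.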
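For solubility in G1/S (NP-40 vs SDS abundance) in this document: HeLa Kyoto cells arrested at G1/S by double thymidine block, proteins quantified by TMT10plex mass spectrometry in mild NP-40 versus SDS extracts, three biological replicates.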
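For thermal stability score vs G1/S (z-score of summed log2 fold changes over temperatures) in this document: synchronized HeLa Kyoto cells, proteins quantified by TMT10plex mass spectrometry, three biological replicates, mitosis taken 0.5 h after nocodazole release, G1/S directly after double thymidine block.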

Chain of WWC2 (chain, as listed by the source): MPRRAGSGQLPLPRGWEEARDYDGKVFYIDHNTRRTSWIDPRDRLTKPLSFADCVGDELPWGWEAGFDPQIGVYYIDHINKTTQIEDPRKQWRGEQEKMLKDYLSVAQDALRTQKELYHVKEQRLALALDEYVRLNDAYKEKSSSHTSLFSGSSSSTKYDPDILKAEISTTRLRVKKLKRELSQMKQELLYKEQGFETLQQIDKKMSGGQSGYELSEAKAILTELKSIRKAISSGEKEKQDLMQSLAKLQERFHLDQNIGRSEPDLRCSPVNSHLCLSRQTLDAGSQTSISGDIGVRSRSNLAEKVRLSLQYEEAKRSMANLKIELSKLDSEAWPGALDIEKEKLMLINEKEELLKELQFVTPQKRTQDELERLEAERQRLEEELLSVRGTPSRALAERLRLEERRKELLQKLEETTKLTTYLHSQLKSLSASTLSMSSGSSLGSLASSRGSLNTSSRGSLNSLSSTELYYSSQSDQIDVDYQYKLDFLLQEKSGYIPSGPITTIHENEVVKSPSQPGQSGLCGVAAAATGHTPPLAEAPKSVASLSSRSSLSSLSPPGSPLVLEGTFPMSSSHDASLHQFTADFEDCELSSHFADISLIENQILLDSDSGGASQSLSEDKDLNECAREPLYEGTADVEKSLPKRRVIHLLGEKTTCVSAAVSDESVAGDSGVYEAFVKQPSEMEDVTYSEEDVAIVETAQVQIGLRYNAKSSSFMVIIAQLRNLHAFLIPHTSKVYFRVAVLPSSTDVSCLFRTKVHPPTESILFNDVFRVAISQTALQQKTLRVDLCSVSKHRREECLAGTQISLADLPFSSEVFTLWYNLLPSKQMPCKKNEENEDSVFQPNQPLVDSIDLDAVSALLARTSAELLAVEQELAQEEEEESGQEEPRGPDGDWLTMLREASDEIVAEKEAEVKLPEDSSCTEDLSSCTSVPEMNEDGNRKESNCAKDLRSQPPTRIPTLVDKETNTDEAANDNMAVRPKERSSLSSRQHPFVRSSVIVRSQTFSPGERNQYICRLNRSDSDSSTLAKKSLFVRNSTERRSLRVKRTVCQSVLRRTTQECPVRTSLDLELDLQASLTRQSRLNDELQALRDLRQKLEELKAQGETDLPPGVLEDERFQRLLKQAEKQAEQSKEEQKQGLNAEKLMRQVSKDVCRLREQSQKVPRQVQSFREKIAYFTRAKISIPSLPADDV
Chain of UBE2D3 (chain, as listed by the source): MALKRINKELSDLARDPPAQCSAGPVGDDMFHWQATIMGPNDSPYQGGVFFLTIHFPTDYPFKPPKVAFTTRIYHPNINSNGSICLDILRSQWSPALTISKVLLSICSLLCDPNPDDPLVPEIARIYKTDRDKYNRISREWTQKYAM
Chain of CDK17 (chain, as listed by the source): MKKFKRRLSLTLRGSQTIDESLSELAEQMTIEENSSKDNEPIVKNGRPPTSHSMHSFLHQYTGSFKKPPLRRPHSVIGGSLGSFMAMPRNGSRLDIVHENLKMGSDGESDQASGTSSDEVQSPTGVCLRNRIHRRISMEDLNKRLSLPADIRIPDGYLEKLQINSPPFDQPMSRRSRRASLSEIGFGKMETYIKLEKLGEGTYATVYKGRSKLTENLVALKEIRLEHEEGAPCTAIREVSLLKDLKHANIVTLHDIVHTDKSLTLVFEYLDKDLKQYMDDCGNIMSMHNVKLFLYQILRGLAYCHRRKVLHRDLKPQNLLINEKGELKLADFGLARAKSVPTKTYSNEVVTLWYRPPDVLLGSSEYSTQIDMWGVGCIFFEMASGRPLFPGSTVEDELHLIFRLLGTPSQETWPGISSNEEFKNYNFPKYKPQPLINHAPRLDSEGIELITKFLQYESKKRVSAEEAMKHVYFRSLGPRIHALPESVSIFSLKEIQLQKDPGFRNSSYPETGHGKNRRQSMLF
Chain of PYM1 (chain, as listed by the source): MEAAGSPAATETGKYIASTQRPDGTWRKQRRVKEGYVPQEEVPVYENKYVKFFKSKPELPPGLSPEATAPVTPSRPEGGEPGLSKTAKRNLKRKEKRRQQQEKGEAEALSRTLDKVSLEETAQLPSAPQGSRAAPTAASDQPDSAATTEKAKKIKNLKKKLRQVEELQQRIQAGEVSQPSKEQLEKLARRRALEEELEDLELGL
Chain of PLSCR3 (chain, as listed by the source): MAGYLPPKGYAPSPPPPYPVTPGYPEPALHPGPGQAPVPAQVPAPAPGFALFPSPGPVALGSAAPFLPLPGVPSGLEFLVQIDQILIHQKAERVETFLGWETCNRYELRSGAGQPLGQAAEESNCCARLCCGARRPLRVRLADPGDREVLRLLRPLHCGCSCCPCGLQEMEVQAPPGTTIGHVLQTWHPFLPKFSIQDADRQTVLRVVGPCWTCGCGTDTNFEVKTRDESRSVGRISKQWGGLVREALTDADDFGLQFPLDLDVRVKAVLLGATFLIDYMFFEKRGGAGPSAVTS

| Substance | solubility in G1/S (log2) (HeLa Kyoto [1]) | solubility change mitosis (log2) (HeLa Kyoto [2]) | thermal stability score (HeLa Kyoto [3]; [5]) | thermal stability score (HeLa Kyoto [3]; cell cycle stage: mitosis) | melting temperature (HeLa Kyoto [4]; cell cycle stage: G1/S) [°C] | melting temperature (HeLa Kyoto [4]; cell cycle stage: mitosis) [°C] |
| --- | --- | --- | --- | --- | --- | --- |
| ASPM | -0.625 | 0.177 | 0.917 | -0.0273 | – | – |
| CDK17 | -0.187 | 0.0778 | 0.0888 | -0.0845 | – | – |
| DYNC2H1 | -0.273 | 0.0553 | 0.756 | 0.972 | – | – |
| MAAAAGDGGGEGGAGLGSAAGLGPGPGLRGQGPSAEAHEGAPDPMPAALHPEEVAARLQRMQRELSNRRKILVKNLPQDSNCQEVHDLLKDYDLKYCYVDRNKRTAFVTLLNGEQAQNAIQMFHQYSFRGKDLIVQLQPTDALLCITNVPISFTSEEFEELVRAYGNIERCFLVYSEVTGHSKGYGFVEYMKKDFAAKARLELLGRQLGASALFAQWMDVNLLASELIHSKCLCIDKLPSDYRDSEELLQIFSSVHKPVFCQLAQDEGSYVGGFAVVEYSTAEQAEEVQQAADGMTIKGSKVQVSFCAPGAPGRSTLAALIAAQRVMHSNQKGLLPEPNPVQIMKSLNNPAMLQVLLQPQLCGRAVKPAVLGTPHSLPHLMNPSISPAFLHLNKAHQSSVMGNTSNLFLQNLSHIPLAQQQLMKFENIHTNNKPGLLGEPPAVVLQTALGIGSVLPLKKELGHHHGEAHKTSSLIPTQTTITAGMGMLPFFPNQHIAGQAGPGHSNTQEKQPATVGMAEGNFSGSQPYLQSFPNLAAGSLLVGHHKQQQSQPKGTEISSGAASKNQTSLLGEPPKEIRLSKNPYLNLASVLPSVCLSSPASKTTLHKTGIASSILDAISQGSESQHALEKCIAYSPPFGDYAQVSSLRNEKRGSSYLISAPEGGSVECVDQHSQGTGAYYMETYLKKKRVY [RAVER2] | 0.172 | -0.203 | 1.56 | 1.81 | – | – |
| MAAVLESLLREEVSVAAVVRWIARSTQGSEDNAGEAAALSSLRALRKEFVPFLLNFLREQSSRVLPQGPPTPAKTPGASAALPGRPGGPPRGSRGARSQLFPPTEAQSTAAEAPLARRGGRRRGPGPARERGGRGLEEGVSGESLPGAGGRRLRGSGSPSRPSLTLSDPPNLSNLEEFPPVGSVPPGPTGTKPSRRINPTPVSEERSLSKPKTCFTSPPISCVPSSQPSALDTSPWGLGLPPGCRSLQEEREMLRKERSKQLQQSPTPTCPTPELGSPLPSRTGSLTDEPADPARVSSRQRLELVALVYSSCIAENLVPNLFLELFFVFQLLTARRMVTAKDSDPELSPAVLDSLESPLFQSIHDCVFFAVQVLECHFQVLSNLDKGTLKLLAENERLLCFSPALQGRLRAAYEGSVAKVSLVMPPSTQAVSFQPETDNRANFSSDRAFHTFKKQRDVFYEVLREWEDHHEEPGWDFEKGLGSRIRAMMGQLSAACSHSHFVRLFQKQLLQMCQSPGGAGGTVLGEAPDVLSMLGADKLGRLWRLQERLMAPQSSGGPCPPPTFPGCQGFFRDFILSASSFQFNQHLMDSLSLKIQELNGLALPQHEPNDEDGESDVDWQGERKQFAVVLLSLRLLAKFLGFVAFLPYRGPEPPPTGELQDSILALRSQVPPVLDVRTLLQRGLQARRAVLTVPWLVEFLSFADHVVPLLEYYRDIFTLLLRLHRSLVLSQESEGKMCFLNKLLLLAVLGWLFQIPTVPEDLFFLEEGPSYAFEVDTVAPEHGLDNAPVVDQQLLYTCCPYIGELRKLLASWVSGSSGRSGGFMRKITPTTTTSLGAQPSQTSQGLQAQLAQAFFHNQPPSLRRTVEFVAERIGSNCVKHIKATLVADLVRQAESLLQEQLVTQGEEGGDPAQLLEILCSQLCPHGAQALALGREFCQRKSPGAVRALLPEETPAAVLSSAENIAVGLATEKACAWLSANITALIRREVKAAVSRTLRAQGPEPAARGERRGCSRACEHHAPLPSHLISEIKDVLSLAVGPRDPDEGVSPEHLEQLLGQLGQTLRCRQFLCPPAEQHLAKCSVELASLLVADQIPILGPPAQYRLERGQARRLLHMLLSLWKEDFQGPVPLQLLLSPRNVGLLADTRPREWDLLLFLLRELVEKGLMGRMEIEACLGSLHQAQWPGDFAEELATLSNLFLAEPHLPEPQLRACELVQPNRGTVLAQS [CDAN1] | 0.0358 | 0.117 | 0.128 | -0.765 | – | – |
| MAGFAELGLSSWLVEQCRQLGLKQPTPVQLGCIPAILEGRDCLGCAKTGSGKTAAFVLPILQKLSEDPYGIFCLVLTPTRELAYQIAEQFRVLGKPLGLKDCIIVGGMDMVAQALELSRKPHVVIATPGRLADHLRSSNTFSIKKIRFLVMDEADRLLEQGCTDFTVDLEAILAAVPARRQTLLFSATLTDTLRELQGLATNQPFFWEAQAPVSTVEQLDQRYLLVPEKVKDAYLVHLIQRFQDEHEDWSIIIFTNTCKTCQILCMMLRKFSFPTVALHSMMKQKERFAALAKFKSSIYRILIATDVASRGLDIPTVQVVINHNTPGLPKIYIHRVGRTARAGRQGQAITLVTQYDIHLVHAIEEQIKKKLEEFSVEEAEVLQILTQVNVVRRECEIKLEAAHFDEKKEINKRKQLILEGKDPDLEAKRKAELAKIKQKNRRFKEKVEETLKRQKAGRAGHKGRPPRTPSGSHSGPVPSQGLV [DDX49] | -0.148 | -0.0629 | 2.1 | 1.97 | – | – |
| MAGKAAAPGTAVLLVTANVGSLFDDPENLQKNWLREFYQVVHTHKPHFMALHCQEFGGKNYEASMSHVDKFVKELLSSDAMKEYNRARVYLDENYKSQEHFTALGSFYFLHESLKNIYQFDFKAKKYRKVAGKEIYSDTLESTPMLEKEKFPQDYFPECKWSRKGFIRTRWCIADCAFDLVNIHLFHDASNLVAWETSPSVYSGIRHKALGYVLDRIIDQRFEKVSYFVFGDFNFRLDSKSVVETLCTKATMQTVRAADTNEVVKLIFRESDNDRKVMLQLEKKLFDYFNQEVFRDNNGTALLEFDKELSVFKDRLYELDISFPPSYPYSEDARQGEQYMNTRCPAWCDRILMSPSAKELVLRSESEEKVVTYDHIGPNVCMGDHKPVFLAFRIMPGAGKPHAHVHKCCVVQ [INPP5A] | -0.359 | -0.17 | 0.56 | -0.257 | – | – |
| MTGKKSSREKRRKRSSQEAAAALAAPDIVPALASGSSGSTSGCGSAGGCGSVSCCGNANFSGSVTGGGSGGSCWGGSSVERSERRKRRSTDSSSVSGSLQQETKYILPTLEKELFLAEHSDLEEGGLDLTVSLKPVSFYISDKKEMLQQCFCIIGEKKLQKMLPDVLKNCSIEEIKKLCQEQLELLSEKKILKILEGDNGMDSDMEEEADDGSKMGSDLVSQQDICIDSASSVRENKQPEGLELKQGKGEDSDVLSINADAYDSDIEGPCNEEAAAPEAPENTVQSEAGQIDDLEKDIEKSVNEILGLAESSPNEPKAATLAVPPPEDVQPSAQQLELLELEMRARAIKALMKAGDIKKPA [CAAP1] | -0.326 | 0.56 | – | – | 47.3 | 51.8 |
| MTKIKADPDGPEAQAEACSGERTYQELLVNQNPIAQPLASRRLTRKLYKCIKKAVKQKQIRRGVKEVQKFVNKGEKGIMVLAGDTLPIEVYCHLPVMCEDRNLPYVYIPSKTDLGAAAGSKRPTCVIMVKPHEEYQEAYDECLEEVQSLPLPL [NHP2] | -1.1 | 1.21 | – | – | 55.3 | 54.1 |
| MTTSQKHRDFVAEPMGEKPVGSLAGIGEVLGKKLEERGFDKAYVVLGQFLVLKKDEDLFREWLKDTCGANAKQSRDCFGCLREWCDAFL [BANF1] | -1.48 | 1.93 | – | – | – | 52.2 |
| MTTTTTFKGVDPNSRNSSRVLRPPGGGSNFSLGFDEPTEQPVRKNKMASNIFGTPEENQASWAKSAGAKSSGGREDLESSGLQRRNSSEASSGDFLDLKGEGDIHENVDTDLPGSLGQSEEKPVPAAPVPSPVAPAPVPSRRNPPGGKSSLVLG [HN1] | -0.248 | 0.268 | – | – | 52.1 | – |
| MVGPAPRRRLRPLAALALVLALAPGLPTARAGQTPRPAERGPPVRLFTEEELARYGGEEEDQPIYLAVKGVVFDVTSGKEFYGRGAPYNALTGKDSTRGVAKMSLDPADLTHDTTGLTAKELEALDEVFTKVYKAKYPIVGYTARRILNEDGSPNLDFKPEDQPHFDIKDEF [NENF] | 0.423 | -0.0192 | – | – | 55.3 | 52.4 |
| MYLSICCCFLLWAPALTLKNLNYSVPEEQGAGTVIGNIGRDARLQPGLPPAERGGGGRSKSGSYRVLENSAPHLLDVDADSGLLYTKQRIDRESLCRHNAKCQLSLEVFANDKEICMIKVEIQDINDNAPSFSSDQIEMDISENAAPGTRFPLTSAHDPDAGENGLRTYLLTRDDHGLFGLDVKSRGDGTKFPELVIQKALDREQQNHHTLVLTALDGGEPPRSATVQINVKVIDSNDNSPVFEAPSYLVELPENAPLGTVVIDLNATDADEGPNGEVLYSFSSYVPDRVRELFSIDPKTGLIRVKGNLDYEENGMLEIDVQARDLGPNPIPAHCKVTVKLIDRNDNAPSIGFVSVRQGALSEAAPPGTVIALVRVTDRDSGKNGQLQCRVLGGGGTGGGGGLGGPGGSVPFKLEENYDNFYTVVTDRPLDRETQDEYNVTIVARDGGSPPLNSTKSFAIKILDENDNPPRFTKGLYVLQVHENNIPGEYLGSVLAQDPDLGQNGTVSYSILPSHIGDVSIYTYVSVNPTNGAIYALRSFNFEQTKAFEFKVLAKDSGAPAHLESNATVRVTVLDVNDNAPVIVLPTLQNDTAELQVPRNAGLGYLVSTVRALDSDFGESGRLTYEIVDGNDDHLFEIDPSSGEIRTLHPFWEDVTPVVELVVKVTDHGKPTLSAVAKLIIRSVSGSLPEGVPRVNGEQHHWDMSLPLIVTLSTISIILLAAMITIAVKCKRENKEIRTYNCRIAEYSHPQLGGGKGKKKKINKNDIMLVQSEVEERNAMNVMNVVSSPSLATSPMYFDYQTRLPLSSPRSEVMYLKPASNNLTVPQGHAGCHTSFTGQGTNASETPATRMSIIQTDNFPAEPNYMGSRQQFVQSSSTFKDPERASLRDSGHGDSDQADSDQDTNKGSCCDMSVREALKMKTTSTKSQPLEQEPEECVNCTDECRVLGHSDRCWMPQFPAANQAENADYRTNLFVPTVEANVETETYETVNPTGKKTFCTFGKDKREHTILIANVKPYLKAKRALSPLLQEVPSASSSPTKACIEPCTSTKGSLDGCEAKPGALAEASSQYLPTDSQYLSPSKQPRDPPFMASDQMARVFADVHSRASRDSSEMGAVLEQLDHPNRDLGRESVDAEEVVREIDKLLQDCRGNDPVAVRK [PCDH17] | 0.25 | -0.0215 | – | – | 53.8 | 53.4 |
| PHLPP1 | 0.00518 | -0.0508 | – | – | 51.7 | 51.2 |
| PIEZO2 | -0.112 | -0.0931 | – | – | 55.7 | 54.8 |
| PLSCR3 | 0.116 | -0.119 | – | – | – | 56.6 |
| PYM1 | 0.42 | 0.791 | – | – | 57.1 | 53.9 |
| QSER1 | -0.136 | -0.127 | – | – | 46.5 | 48.5 |
| RAP1GAP | 0.239 | -0.474 | – | – | 49.2 | – |
| RERE | -0.116 | 0.148 | – | – | – | 50.7 |
| RINT1 | -0.0714 | -0.105 | – | – | 51.4 | 49.2 |
| SYNE2 | -0.84 | 0.607 | – | – | 51.1 | 50.3 |
| TNRC6A | -0.225 | -0.0232 | – | – | 50.7 | – |
| UBE2D3 | 0.585 | 0.0226 | – | – | 49.5 | – |
| WWC2 | -0.102 | -0.0226 | – | – | 51.1 | 49.9 |
